This is an account of results in publication PMC5462531.

The target of assay [1] is SBC, trimeric complex of SOCS2, Elongin B and Elongin C (wild type) (UniProt O14508). Nature of the assay: ITC; Cul5NTD titrated into VBC or SBC proteins (Figure 7D: 200 μM into 20 μM, 303 K); 100 mM Bis tris propane pH 8.0, 50 mM NaCl, 2 mM TCEP; one-set-of-sites model.
Assay [2] deals with S^KSDBC, SBC with the SOCS2 triple mutation Q164K, R186S, Y190D (UniProt O14508). The assay is described as above.
In assay [3] the target is V^QRYBC, VBC with the pVHL triple mutation K159Q, S183R, D187Y (human) (UniProt P40337). The description is as above.
Assay [4] concerns the target Rbx1-Cul2, dimeric complex of full-length Rbx1 and full-length Cullin-2 (wild type) (human) (UniProt Q13617). Nature of the assay: ITC; VBC or SBC proteins (200 μM) titrated into Rbx1-Cul2 (20 μM), 303 K; 100 mM Bis tris propane pH 8.0, 50 mM NaCl, 2 mM TCEP; one-set-of-sites model.

Chain of Cul5NTD, N-terminal domain of Cullin-5 (residues 1-386) (Q93034 1-386): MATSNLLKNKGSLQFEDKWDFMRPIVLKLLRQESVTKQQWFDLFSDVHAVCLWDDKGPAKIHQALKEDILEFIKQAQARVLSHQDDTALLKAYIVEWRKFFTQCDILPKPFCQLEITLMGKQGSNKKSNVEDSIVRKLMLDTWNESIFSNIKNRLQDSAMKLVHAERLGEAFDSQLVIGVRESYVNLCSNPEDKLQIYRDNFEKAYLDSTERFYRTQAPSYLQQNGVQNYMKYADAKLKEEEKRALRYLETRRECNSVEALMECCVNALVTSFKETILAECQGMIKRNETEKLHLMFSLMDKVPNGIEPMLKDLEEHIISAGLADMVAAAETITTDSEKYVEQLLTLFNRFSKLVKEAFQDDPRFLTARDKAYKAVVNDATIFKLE
Chain of Rbx1-Cul2, dimeric complex of full-length Rbx1 and full-length Cullin-2 (wild type) (human) (Q13617 whole entry, chain 1 of 2): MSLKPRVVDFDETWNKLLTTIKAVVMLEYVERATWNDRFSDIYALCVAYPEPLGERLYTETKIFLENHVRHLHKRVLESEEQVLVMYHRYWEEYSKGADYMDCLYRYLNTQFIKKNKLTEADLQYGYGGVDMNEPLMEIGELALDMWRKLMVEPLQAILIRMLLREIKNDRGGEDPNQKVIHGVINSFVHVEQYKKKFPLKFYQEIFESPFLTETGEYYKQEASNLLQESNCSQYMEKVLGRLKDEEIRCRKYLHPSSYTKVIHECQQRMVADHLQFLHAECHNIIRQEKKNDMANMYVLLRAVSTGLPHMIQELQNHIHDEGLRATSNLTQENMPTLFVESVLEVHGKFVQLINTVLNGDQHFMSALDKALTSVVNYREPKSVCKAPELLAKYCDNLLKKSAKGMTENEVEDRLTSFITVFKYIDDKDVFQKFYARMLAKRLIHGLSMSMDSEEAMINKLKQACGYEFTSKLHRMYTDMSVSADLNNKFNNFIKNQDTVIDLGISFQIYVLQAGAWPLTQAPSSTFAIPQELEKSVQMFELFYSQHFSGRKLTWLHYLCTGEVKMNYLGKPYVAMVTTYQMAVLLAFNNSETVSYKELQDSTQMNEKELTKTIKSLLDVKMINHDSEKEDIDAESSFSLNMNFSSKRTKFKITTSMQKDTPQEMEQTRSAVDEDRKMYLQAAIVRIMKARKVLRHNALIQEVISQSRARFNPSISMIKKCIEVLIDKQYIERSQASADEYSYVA
Chain of Rbx1-Cul2, dimeric complex of full-length Rbx1 and full-length Cullin-2 (wild type) (human) (P62877 whole entry, chain 2 of 2, further chain): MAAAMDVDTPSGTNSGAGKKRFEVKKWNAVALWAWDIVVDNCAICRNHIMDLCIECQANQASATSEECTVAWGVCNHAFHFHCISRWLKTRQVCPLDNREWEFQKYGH

Turning to “Cul5NTD, N-terminal domain of Cullin-5 (residues 1-386) (from UniProt Q93034 1-386) (domain or fragment)”, the results for the Kd in assay [1], in assay [2] and in assay [3] were 10 nM, 250 nM and 2900 nM, respectively.
“S^KSDBC, SBC with the SOCS2 triple mutation Q164K, R186S, Y190D (from UniProt O14508 32-198; Q15370 1-104; Q15369 17-112) (complex; other documents disagree on this pair)” returned a Kd in assay [4] of 2500 nM.
